These results are taken from US20040175364A1.

This test has as its target Adenovirus 5 receptor (cell surface fiber receptor on HeLa cells). As to the kind of experiment: cell-based or functional assay.

“Adenovirus 5 fiber protein (from UniProt P11818 1-581) (ligand)” yielded a percentage of adenoviral transduction of HeLa cells by Av1LacZ4 (β-galactosidase positive cells) after preincubation with competitor fiber of 0.1 to 1 pg/mL.
